Results reported in article PMC4734654 (Nature, 2015).

B1: OsSWEET2b, purified in DDM for glutaraldehyde cross-linking (natural protein)
chain: MDSLYDISCFAAGLAGNIFALALFLSPVTTFKRILKAKSTERFDGLPYLFSLLNCLICLWYGLPWVADGRLLVATVNGIGAVFQLAYICLFIFYADSRKTRMKIIGLLVLVVCGFALVSHASVFFFDQPLRQQFVGAVSMASLISMFASPLAVMGVVIRSESVEFMPFYLSLSTFLMSASFALYGLLLRDFFIYFPNGLGLILGAMQLALYAYYSSNSLEVLFQ

How the values were obtained:
[1] = target: OsSWEET2b, crystallisation construct (C-terminal 15 residues removed, reductively methylated) (Oryza sativa); experiment: crystal structure
cross-linking = target: the molecule itself; experiment: cross-linking

Molecule	stoichiometry N [1]	stoichiometry N (cross-linking)
OsSWEET2b, crystallisation construct (C-terminal 15 residues removed, reductively methylated) (natural protein)	3	–
B1	–	3
